Measurements taken from patent US20050221381A1, “Method for isolating ligands” (priority 2002, published 2005).
Like-named read-outs stand apart in the source and are kept apart here.

Experiments:
[1] = system: PBMC (CD4 and CD8 positive T-cell compartments); test: Intracellular IFN-γ staining combined with surface staining for CD4, CD8, CD69 (FACS); assay type: cell-based, human; conditions: donor 10687, peptide 80 μg/ml (FIG. 11)
Protocol: To distinguish between CD8-positive CTL mediated or CD4-positive HTL mediated reactivity, intracellular cytokine staining combined with staining for surface markers was performed: after thawing, PBMNC were kept overnight (37° C., 5% CO2) in RPMI1640 with 10% human serum type AB (BioWhittaker). Next day aliquots of 2 million PBMNC were incubated with peptide (80 μg/ml) or Concanavalin A (SIGMA). After 1 h, 10 μg/ml brefeldin A (SIGMA) were added and incubation was continued for 5 hours. Surface staining for CD4 (phycoerythrin), CD8 (cychrome), CD69 (allophycocyanine) was done with antibodies labelled as indicated (Pharmingen, San Diego, Calif., USA). After fixation with 1% para-formaldehyde in PBS, cells were permeabilized by incubating for 15 min in 0.5% BSA/0.1% Na-azide/0.1% saponin in PBS. Intracellular cytokines were stained with anti-IFN-γ (FITC) antibody 4S.B3 (Pharmingen). Samples (100,000 events in the lymphocyte gate) were read on a FACScalibur (Becton Dickinson).
FIG. 11: Confirmation of simultaneous CD4+ and CD8+ T-cell responses against CMVpp65 15mers 469, 470 by intracellular IFN-γ staining. PBMC from 2 donors (10687, 10788) were stimulated with either ConA as positive control (1st column), 15mers containing both putative class I and class II epitopes (columns 2 and 3) or medium as negative control (right column). Cells were stained for intracellular IFN-γ (x-axis) or surface the T-cell differentiation markers CD4 or CD8 (y-axis). Percentage in upper-right quadrant is indicated, numbers significant over background are shown boldface.

[2] = target: T1, soluble DRB1*0401 molecules (DR4) (Homo sapiens, UniProt P01903+P01911, A100K/A169T/F76Y/I96L/K127E/L162R/M171V/N62H/P40V/Q125Y/R42H/S133A/S149N/S66Y/V115G/V209L/W38E); assay type: binding; set-up: key: −: no binding; +/−: weak binding; +: intermediate binding; ++: strong binding; conditions: individual pp65 15mer, SDS-stability assay
T1 construct: Soluble HLA class I A*0201 and HLA class II DRA1*0101/DRB1*0101/Ii, DRA1*0101/DRB1*0401/Ii and DRA1*0101/DRB1*0404/Ii molecules were expressed in SC-2 cells; made in house; host or cells: SC-2 cells

[3] = target: DRB1*0701 (Homo sapiens, UniProt P01903+P01911, A100R/A102G/A103Q/D57E/D86V/E43K/F76Y/K127E/L162R/M171V/P40G/Q125H/Q99D/R33Q/R42Y/R54Q/S133A/S66F/T210M/V115G/Y107V/Y59L/Y89S); test: Peptide-competition assay with biotinylated CLIP peptide (ELISA); assay type: binding; set-up: key: −: no binding/T cell response; +/−: weak binding/T cell response; +: intermediate binding/T cell response; ++: strong binding/T cell response; conditions: DRB1*0701
[4] = target: DRB1*1101 (Homo sapiens, UniProt P01903+P01911, A100R/A169T/A87E/I96F/K41T/L162R/M171V/P40S/Q125H/Q178H/Q39Y/Q99D/R42S/S66Y/T262R/V115G/W38E); test: as above; assay type: binding; set-up: key: −: no binding/T cell response; +/−: weak binding/T cell response; +: intermediate binding/T cell response; ++: strong binding/T cell response; conditions: DRB1*1101
[5] = system: CD4+ T cells; conditions: healthy, CMV-exposed human subjects; partially or fully identical sequences; cited from earlier work
[6] = target: T1, soluble DRB1*0401 molecules (DR4); assay type: binding; set-up: key to Binding to DRB1 *0401: −: no binding/T cell response; +/−: weak binding/T cell response; +: intermediate binding/T cell response; ++: strong binding/T cell response; conditions: soluble DRB1*0401 molecules
[7] = target: T2, soluble DRB1*0404 molecules (Homo sapiens, UniProt P01903+P01911, A100R/A169T/F76Y/I96L/K127E/L162R/M171V/N62H/P40V/Q125Y/R42H/S133A/S149N/S66Y/V209L/W38E); test: Peptide binding assay, SDS-stability assay; set-up: key: −: no binding/T cell response; +/−: weak binding/T cell response; +: intermediate binding/T cell response; ++: strong binding/T cell response; conditions: soluble DRB1*0404 molecules
T2 construct: Soluble HLA class I A*0201 and HLA class II DRA1*0101/DRB1*0101/Ii, DRA1*0101/DRB1*0401/Ii and DRA1*0101/DRB1*0404/Ii molecules were expressed in SC-2 cells; made in house; host or cells: SC-2 cells

[8] = target: T3, soluble DRB1*0101 molecules (Homo sapiens, UniProt P01903+P01911, A100R/D57E/F55L/F60I/F76Y/I96L/L162R/M171V/P40L/Q125E/R42F/V115G/Y59C); test: Peptide binding assay, SDS-stability assay; set-up: key: −: no binding/T cell response; +/−: weak binding/T cell response; +: intermediate binding/T cell response; ++: strong binding/T cell response; conditions: soluble DRB1*0101 molecules
T3 construct: Soluble HLA class I A*0201 and HLA class II DRA1*0101/DRB1*0101/Ii, DRA1*0101/DRB1*0401/Ii and DRA1*0101/DRB1*0404/Ii molecules were expressed in SC-2 cells; made in house; host or cells: SC-2 cells

[9] = system: HLA-DRB1*0401-transgenic mice splenocytes; assay type: in vivo, mouse; set-up: key to DRB1*0401 mice total SC (T cell response) / DRB1*0401 mice CD4+ (T cell response): −: no binding/T cell response; +/−: weak binding/T cell response; +: intermediate binding/T cell response; ++: strong binding/T cell response; conditions: IFN-gamma ELISpot, ex vivo re-stimulation; for DRB1*0401 mice CD4+ (T cell response): enriched CD4+ fraction of splenocytes of HLA-DR4 transgenic mice vaccinated with the longer peptide; for DRB1*0401 mice total SC (T cell response): total splenocytes of HLA-DR4 transgenic mice vaccinated with the longer peptide
[10] = system: DRB1*0401, DRB1*0101, DRB1*0404, DRB1*0701 and DRB1*1101; test: Binding to soluble HLA molecules of different allels (promiscuity); set-up: species or system human
Protocol: In peptide binding reactions HLA molecules were used in a concentration of 0.5 μM, and each single peptide was added in 10-fold molar excess (5 μM) if not mentioned differently. […] The reaction was performed in PBS buffer (pH 7.4) at room temperature for 48 hours in the presence of a protease inhibitor cocktail (Roche) and 0.1% octyl-b-D-glucopyranoside (Sigma).
Peptide binding was evaluated in an SDS-stability assay (Gorga et al., 1987): trimeric HLA class II ab-peptide complexes are resistant to SDS and consequently appear as ˜60 kDa band in SDS-PAGE Western blot analysis. Individual HLA class II α and β chains not stabilized by a peptide binding with intermediate to high affinity migrate as ˜35 kDa and ˜30 kDa bands, respectively.
The binding affinities to DRB1*0701 and DRB1*1101 were tested by a peptide-competition assay (Reay et al., 1992). Briefly, binding of the biotinylated CLIP peptide (reference peptide) has been used for monitoring of HLA:peptide complex formation. […] In the case of lower affinity peptides they should be added in excess to the reference peptide to compete for occupancy of HLA binding grove. […] Alternatively, comparing of the amount of reference peptide bound to HLA molecules in the presence or absence of competitor peptide one can determine the binding activity of the peptide of interest.
In the present peptide-competition assay conditions of peptide binding were similar to described above. Soluble HLA molecules were used in the concentration of 0.5 μM and biotinylated CLIP was added to all samples in the final concentration of 2 μM. Competitor peptides were added in three different concentrations: 0.25, 5 and 100 μM. Binding reaction was performed in PBS buffer (pH 7.4) for 18 hours at 37° C. […] Briefly, MaxiSorb 96-well plates (Nunc, Denmark) were coated with mouse anti-αβ antibody L243 (purified from ATCC HB-55) by overnight incubation with 50 μl of 10 μg/ml dilution in PBS at 4° C. Non-specific binding to the plastic was blocked by incubation with T-PBS containing 3% of BSA for 2 hours at 37° C. and binding reactions were then “captured” for 2 hours at room temperature. […] The optical density at 405 nm was measured on a microplate reader SUNRISE (Tecan).
Some of the identified DRB1*0401 binding peptides, as well as others chosen by prediction algorithms were also tested for binding to soluble HLA molecules of different allels: DRB1*0101, DRB1*0404, DRB1*0701 and DRB1*1101 (Table 3).

[11] = target: T2, soluble DRB1*0404 molecules; test: Peptide binding assay, SDS-stability assay; set-up: key: +++: high binding affinity; ++: moderate binding affinity; +: low binding affinity; −: no binding; conditions: individual pp65 15mer
[12] = target: T1, soluble DRB1*0401 molecules (DR4); assay type: binding; set-up: key: +++: high binding affinity; ++: moderate binding affinity; +: low binding affinity; −: no binding
[13] = system: PBMC from CMV seropositive donors; assay type: cell-based, human
[14] = target: T2, soluble DRB1*0404 molecules; test: Peptide binding assay, SDS-stability assay; set-up: key: −: no binding; +/−: weak binding; +: intermediate binding; ++: strong binding; conditions: individual pp65 15mer
[15] = target: T3, soluble DRB1*0101 molecules; test: Peptide binding assay, SDS-stability assay; set-up: key: −: no binding; +/−: weak binding; +: intermediate binding; ++: strong binding; conditions: individual pp65 15mer
[16] = target: T3, soluble DRB1*0101 molecules; test: Peptide binding assay, SDS-stability assay; set-up: key: +++: high binding affinity; ++: moderate binding affinity; +: low binding affinity; −: no binding; conditions: individual pp65 15mer
[17] = individual pp65 15mer, SDS-stability assay

AGILARNLVPMVATV [Peptide 489]
Intracellular IFN-γ in CD4 and CD8 positive T-cell compartments [1]: only CD8 mediated IFN-γ secretion

EPDVYYTSAFVFPTK [Peptide 177]
Binding to DRB1*0401 [2]: +
Binding to DRB1 *0701 [3]: −
Binding to DRB1 1101 [4]: +
Specific CD4+ T cells response described earlier [5]: capable to evoke specific CD4+ T cells response
Binding to DRB1 *0401 [6]: +
Binding to DRB1*0404 [7]: −
Binding to DRB1*0101 [8]: ++
DRB1*0401 mice CD4+ (T cell response) [9]: +
DRB1*0401 mice total SC (T cell response) [9]: +
Affinity for several HLA molecules (promiscuity) [10]: affinity for at least two HLA molecules

GGAIAGASTSAGRKR [Peptide 423]
Binding to DRB1*0404 [11]: −
Binding to DRB1*0401 [12, 17]: −
Induction of IFN-gamma secretion in T cells / PBMC from CMV seropositive donors [13]: can induce functional, IFN-gamma secreting T cells in humans

LVPMVATVQGQNLKY [Peptide 496]
Binding to DRB1*0404 [14]: +
Binding to DRB1*0101 [15]: +
Binding to DRB1*0401 [12, 17]: −
Affinity for several HLA molecules (promiscuity) [10]: affinity for at least two HLA molecules

LVSQYTPDSTPCHRG [Peptide 57]
Binding to DRB1*0401 [2]: ++
Binding to DRB1*0404 [11]: −
Binding to DRB1*0101 [16]: −
Binding to DRB1 *0401 [6]: ++
Binding to DRB1*0404 [7]: −
Binding to DRB1*0101 [8]: −
DRB1*0401 mice CD4+ (T cell response) [9]: +
DRB1*0401 mice total SC (T cell response) [9]: ++
Induction of IFN-gamma secretion in T cells / PBMC from CMV seropositive donors [13]: induce INF-gamma production
T-cell responses, IFN-γ ELIspot ([13]; donor 10788 (FIG. 10)): strong T-cell responses

MSIYVYALPLKMLNI [Peptide 109]
Binding to DRB1*0101 [15]: +
Binding to DRB1*0401 [12]: −

TDEDSDNEIHNPAVF [Peptide 468]
Binding to DRB1*0404 [11]: −
Binding to DRB1*0401 [12, 17]: −

WKEPDVYYTSAFVFP [Peptide 175]
Binding to DRB1*0101 [15]: +
Binding to DRB1 *0401 [6]: −
Binding to DRB1*0401 [12, 17]: −
DRB1*0401 mice CD4+ (T cell response) [9]: +
DRB1*0401 mice total SC (T cell response) [9]: +
